In paper PMC12728192 (2025):
Ends that are not written are not given here.

Tests used:
[1] = target: T1, Thermothelomyces thermophilus SAM complex (sorting and assembly machinery complex; Sam50:Sam35:Sam37, monomer) (Thermothelomyces thermophilus); assay: MST; replicate 3; detergent
[2] = target: T1, Thermothelomyces thermophilus SAM …; assay: MST; replicate 6; detergent
[3] = target: T1, Thermothelomyces thermophilus SAM …; assay: MST; replicate 1; detergent

T1 sequence (chain, as listed by the source, chain 1 of 3): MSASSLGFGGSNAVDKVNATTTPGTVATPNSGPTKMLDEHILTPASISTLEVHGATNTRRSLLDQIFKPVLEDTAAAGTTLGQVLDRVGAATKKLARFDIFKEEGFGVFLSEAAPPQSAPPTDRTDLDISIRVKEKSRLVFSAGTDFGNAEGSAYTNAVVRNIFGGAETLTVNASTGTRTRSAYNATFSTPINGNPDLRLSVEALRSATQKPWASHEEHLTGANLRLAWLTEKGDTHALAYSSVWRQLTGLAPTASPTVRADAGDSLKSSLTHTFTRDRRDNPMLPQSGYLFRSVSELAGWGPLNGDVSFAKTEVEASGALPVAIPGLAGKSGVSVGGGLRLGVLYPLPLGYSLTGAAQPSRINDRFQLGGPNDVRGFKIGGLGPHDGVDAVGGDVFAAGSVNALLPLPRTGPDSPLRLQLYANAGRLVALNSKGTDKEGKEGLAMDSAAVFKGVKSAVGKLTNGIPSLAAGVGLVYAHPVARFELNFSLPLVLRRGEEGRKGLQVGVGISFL
T1 sequence (chain, as listed by the source, chain 2 of 3): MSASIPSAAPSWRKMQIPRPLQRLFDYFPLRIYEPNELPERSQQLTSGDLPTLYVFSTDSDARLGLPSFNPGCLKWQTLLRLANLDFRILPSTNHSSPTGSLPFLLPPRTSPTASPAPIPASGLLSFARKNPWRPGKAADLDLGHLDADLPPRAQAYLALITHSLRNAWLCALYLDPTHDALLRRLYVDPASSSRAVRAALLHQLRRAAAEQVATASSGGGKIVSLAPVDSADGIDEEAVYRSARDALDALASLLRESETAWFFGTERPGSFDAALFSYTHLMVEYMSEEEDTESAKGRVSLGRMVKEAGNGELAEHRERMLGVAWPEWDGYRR
T1 sequence (chain, as listed by the source, chain 3 of 3): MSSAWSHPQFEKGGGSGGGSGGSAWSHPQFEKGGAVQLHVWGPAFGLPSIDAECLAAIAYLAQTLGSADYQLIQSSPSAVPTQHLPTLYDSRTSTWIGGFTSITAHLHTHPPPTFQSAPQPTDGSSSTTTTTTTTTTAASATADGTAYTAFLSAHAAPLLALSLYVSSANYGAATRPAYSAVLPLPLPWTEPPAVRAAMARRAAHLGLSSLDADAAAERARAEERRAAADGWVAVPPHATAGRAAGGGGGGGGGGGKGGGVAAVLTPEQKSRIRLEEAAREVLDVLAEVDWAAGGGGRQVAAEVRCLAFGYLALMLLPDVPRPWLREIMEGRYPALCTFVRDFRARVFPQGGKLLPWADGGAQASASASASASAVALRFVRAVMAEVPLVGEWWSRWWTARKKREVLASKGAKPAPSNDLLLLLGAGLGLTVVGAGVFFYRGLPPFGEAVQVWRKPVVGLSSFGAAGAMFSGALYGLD

**Q.** WNWSKSF [linear darobactin] was tested. Which Kd [1] did it give?
**A.** 491000 nM

**Q.** Which Kd [2] does the source give for WNWSKSF (also: backbone cyclizations, places not given here) [darobactin A] here?
**A.** 166 nM

**Q.** What about the Kd [3] of the same binder?
**A.** 149 nM
